{"source": "paper PMC13376610", "about": "“Nanobody-mediated control of long RSH Rel and RelA catalysis by restriction of their conformational landscape” (Nature Communications, 2026)", "key": {"[1]": {"biological_target": "T1, RelCt^NTD (Chlorobaculum tepidum, UniProt Q8KC80)", "T1 construct": "gene relA; N-terminal catalytic region (HD + SYNTH domains), C-terminal regulatory domains removed; N-terminal His-TEV tag cleaved; recombinant, gene from GenScript", "T1 sequence (Q8KC80 1-390 limits assumed)": "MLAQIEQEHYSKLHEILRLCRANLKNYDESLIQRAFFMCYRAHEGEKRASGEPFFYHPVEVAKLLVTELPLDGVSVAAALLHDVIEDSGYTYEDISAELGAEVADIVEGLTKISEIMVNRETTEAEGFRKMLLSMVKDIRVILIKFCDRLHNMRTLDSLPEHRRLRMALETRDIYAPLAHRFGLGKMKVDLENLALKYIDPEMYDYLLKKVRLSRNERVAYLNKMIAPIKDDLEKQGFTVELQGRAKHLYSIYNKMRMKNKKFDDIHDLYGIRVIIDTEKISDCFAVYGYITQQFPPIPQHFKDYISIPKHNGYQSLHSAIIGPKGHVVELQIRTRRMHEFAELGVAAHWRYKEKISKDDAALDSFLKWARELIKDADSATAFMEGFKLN", "assay": "ITC", "assay_type": "binding", "conditions": "15 °C, pH 7.5, 10 mM MgCl2, no nanobody; SYNTH active site; non-hydrolysable ATP analogue; also crystal structure with GDP (2.65 Å)"}, "[2]": {"biological_target": "T2, full-length E. coli RelA (Escherichia coli (K-12 entry), UniProt P0AG20)", "T2 construct": "RelA, long RSH (p)ppGpp synthetase, Escherichia coli, full length; also called RelAEc; source: construct generated by GenScript", "assay": "ITC; nanobody titrated into the RSH enzyme in the cell; Affinity-ITC, 15 °C, 2 μL injections, stirring 75 r.p.m., triplicate; mean KD ± SD", "conditions": "both partners purified"}, "[3]": {"biological_target": "T3, RelCt^NTD, N-terminal catalytic region of C. tepidum Rel (Chlorobaculum tepidum TLS)", "T3 construct": "Rel, Chlorobaculum tepidum, N-terminal catalytic region (HD and SYNTH domains); His-TEV tag removed with TEV protease; source: recombinant, purified (HisTrap, SEC, TEV cleavage, reverse IMAC, SEC); construct generated by GenScript; not shown: His tag, N-terminal, cleaved", "T3 chain": "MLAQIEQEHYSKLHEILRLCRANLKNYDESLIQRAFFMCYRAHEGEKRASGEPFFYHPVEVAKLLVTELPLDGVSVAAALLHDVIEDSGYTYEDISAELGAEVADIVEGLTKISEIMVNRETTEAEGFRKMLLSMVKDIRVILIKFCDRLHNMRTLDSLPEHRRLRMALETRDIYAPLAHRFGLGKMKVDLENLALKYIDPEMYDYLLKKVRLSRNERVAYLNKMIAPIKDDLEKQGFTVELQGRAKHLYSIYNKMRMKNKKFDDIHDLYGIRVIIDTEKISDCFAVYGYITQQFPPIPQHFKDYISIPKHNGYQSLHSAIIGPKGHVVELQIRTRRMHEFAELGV", "assay": "HDX-MS; RelCt^NTD alone against its complex with the nanobody, 50 to 70 μM; labelling 0.5, 5 or 60 min at 20 °C in 50 mM HEPES, 500 mM KCl, 500 mM NaCl, 2 mM MgCl2, 1 mM TCEP, 0.002% mellitic acid (pD 7.5); triplicate", "conditions": "both partners purified"}, "[4]": {"biological_target": "T4, full-length Rel from Chlorobaculum tepidum (Chlorobaculum tepidum TLS, UniProt Q8KC80)", "T4 construct": "Rel, bifunctional (p)ppGpp synthetase/hydrolase (long RSH), Chlorobaculum tepidum, full length; PDB 9S6K and 9S6L hold the NTD of this protein; also called RelCt; RelACt (as printed once); source: construct generated by GenScript", "assay": "ITC; nanobody titrated into the RSH enzyme in the cell; Affinity-ITC, 15 °C, 2 μL injections, stirring 75 r.p.m., triplicate; mean KD ± SD", "conditions": "both partners purified"}, "[5]": {"biological_target": "T4, full-length Rel from Chlorobaculum …", "assay": "cell-based or functional assay"}, "[6]": {"biological_target": "RelCt^R215E (Chlorobaculum tepidum)", "assay": "ITC; nanobody titrated into the RSH enzyme in the cell; Affinity-ITC, 15 °C, 2 μL injections, stirring 75 r.p.m., triplicate; mean KD ± SD"}, "[7]": {"biological_target": "T5, RelCt^NTD, N-terminal catalytic region of C. tepidum Rel (Chlorobaculum tepidum)", "T5 chain": "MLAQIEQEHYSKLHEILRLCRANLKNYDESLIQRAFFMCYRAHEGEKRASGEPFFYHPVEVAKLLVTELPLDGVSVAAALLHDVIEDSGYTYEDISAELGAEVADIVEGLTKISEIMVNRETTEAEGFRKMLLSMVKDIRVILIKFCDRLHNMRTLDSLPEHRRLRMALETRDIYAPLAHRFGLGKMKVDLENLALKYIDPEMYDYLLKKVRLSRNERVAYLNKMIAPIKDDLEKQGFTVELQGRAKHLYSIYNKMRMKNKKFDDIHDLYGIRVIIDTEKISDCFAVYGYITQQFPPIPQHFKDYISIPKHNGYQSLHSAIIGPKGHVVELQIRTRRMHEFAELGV", "assay": "ITC"}, "[8]": {"biological_target": "T6, RelCt^A286K (Chlorobaculum tepidum)", "T6 chain": "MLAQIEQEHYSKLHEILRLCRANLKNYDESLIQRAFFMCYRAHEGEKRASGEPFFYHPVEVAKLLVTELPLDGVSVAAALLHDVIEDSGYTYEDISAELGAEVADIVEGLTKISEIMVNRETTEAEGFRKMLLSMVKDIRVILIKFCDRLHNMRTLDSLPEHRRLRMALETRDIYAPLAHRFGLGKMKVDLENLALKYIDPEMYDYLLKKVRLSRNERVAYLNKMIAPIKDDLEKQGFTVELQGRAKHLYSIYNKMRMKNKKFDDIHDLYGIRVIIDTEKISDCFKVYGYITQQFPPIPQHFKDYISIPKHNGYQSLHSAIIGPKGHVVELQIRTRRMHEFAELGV", "assay": "ITC"}, "[9]": {"biological_target": "T7, RelCt^K280A (Chlorobaculum tepidum)", "T7 chain": "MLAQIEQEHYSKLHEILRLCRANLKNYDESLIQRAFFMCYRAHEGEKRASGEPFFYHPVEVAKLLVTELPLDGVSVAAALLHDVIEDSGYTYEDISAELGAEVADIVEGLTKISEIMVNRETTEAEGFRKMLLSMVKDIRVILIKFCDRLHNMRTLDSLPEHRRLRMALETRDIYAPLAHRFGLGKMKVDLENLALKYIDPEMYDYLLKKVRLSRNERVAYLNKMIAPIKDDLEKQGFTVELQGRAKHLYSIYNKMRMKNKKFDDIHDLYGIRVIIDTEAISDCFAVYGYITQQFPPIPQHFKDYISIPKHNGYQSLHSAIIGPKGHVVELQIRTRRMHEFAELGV", "assay": "ITC"}, "[10]": {"biological_target": "T8, RelCt^D283A (Chlorobaculum tepidum)", "T8 chain": "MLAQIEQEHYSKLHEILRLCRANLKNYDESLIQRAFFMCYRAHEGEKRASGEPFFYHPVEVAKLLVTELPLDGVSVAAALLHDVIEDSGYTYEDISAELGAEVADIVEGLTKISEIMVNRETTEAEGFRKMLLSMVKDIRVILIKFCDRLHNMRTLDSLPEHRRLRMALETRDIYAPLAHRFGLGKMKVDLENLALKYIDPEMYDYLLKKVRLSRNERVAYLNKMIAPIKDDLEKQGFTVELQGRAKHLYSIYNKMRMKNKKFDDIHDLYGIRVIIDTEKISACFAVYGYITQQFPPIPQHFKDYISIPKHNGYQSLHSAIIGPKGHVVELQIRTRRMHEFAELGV", "assay": "ITC"}, "[11]": {"biological_target": "T9, RelCt^Y290A (Chlorobaculum tepidum)", "T9 chain": "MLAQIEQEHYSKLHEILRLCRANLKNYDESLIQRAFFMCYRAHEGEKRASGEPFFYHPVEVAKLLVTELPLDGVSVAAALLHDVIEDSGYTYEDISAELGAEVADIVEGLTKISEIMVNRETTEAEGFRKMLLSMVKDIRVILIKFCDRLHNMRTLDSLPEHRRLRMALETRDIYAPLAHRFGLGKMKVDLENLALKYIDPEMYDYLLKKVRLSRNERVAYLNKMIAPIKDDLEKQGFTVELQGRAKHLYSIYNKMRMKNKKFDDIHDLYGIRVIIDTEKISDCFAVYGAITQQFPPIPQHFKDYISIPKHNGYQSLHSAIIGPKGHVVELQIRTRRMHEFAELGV", "assay": "ITC"}, "[12]": {"biological_target": "T8, RelCt^D283A", "assay": "ITC"}}, "note": "Read-outs that look alike come from different tables or passages of the source.", "data": [{"molecule": "Nc1ncnc2c1ncn2[C@@H]1O[C@H](COP(=O)(O)CP(=O)(O)OP(=O)(O)O)[C@@H](O)[C@H]1O", "note": "[APCPP]", "values": [{"measurement": "Kd", "setting": "[1]", "result": 37900, "unit": "nM"}]}, {"molecule": "Nb96 (VHH, llama nanobody selected against E. coli RelA; Expressed from the pMESy4 plasmid; also called nanobody 96; source: E. coli WK6, periplasmic extraction, purified (Ni-NTA IMAC, SEC)) VHH: QVQLQESGGGLVQAGGSLRLSCAASGSIFDIKVMAWYRQAPGKSRELVAVHASADDSTTYEKSVKGRFTISRDNAKNTVYLQMNSLKPEDTAIYYCNRIPNFTHWGQGTQVTVS", "values": [{"measurement": "Kd", "setting": "[2]", "result": 80, "unit": "nM"}]}, {"molecule": "Nb120 (VHH, control nanobody selected against a different target; also called control Nb120; source: E. coli WK6, periplasmic extraction, purified (Ni-NTA IMAC, SEC)) VHH: QVQLVESGGGLVQPGGSLRLSCAASGTIRSLNAMAWYRQAPGKERELAARISSGGTTTYADSVKGRFTISRDNAKNTLYLQMNSLKPEDTAVYYCKANRFSTYGYRDDIWGQGTQVTVS", "values": [{"measurement": "binding result", "setting": "[2]", "result": "no binding"}]}, {"molecule": "Nb585 (VHH, llama nanobody selected against C. tepidum Rel; Expressed from the pMESy4 plasmid; also called nanobody 585; source: E. coli WK6, periplasmic extraction, purified (Ni-NTA IMAC, SEC)) VHH: QVQLQESGGGLVQAGGSLRLSCAASGFTFEDYTIGWFRQAPGKEREGVSLISNSDGFTSYADSVKGQFTISSENAKNTVYLQMDNLKPEDTAVYYCAATEVLAHLMWRPSNWGYWGQGTQVTV", "values": [{"measurement": "binding result", "setting": "[3]", "result": "binds"}, {"measurement": "Kd", "setting": "[4]", "result": 21, "unit": "nM"}, {"measurement": "HD (ppGpp hydrolase) activity of RelCt in the presence of Nb585, HPLC", "setting": "[5]", "result": 2, "unit": "fold"}, {"measurement": "fold drop in affinity against unsubstituted RelCt", "setting": "[6]", "result": 28, "unit": "fold"}]}, {"molecule": "Nb898 (VHH, llama nanobody selected against C. tepidum Rel; Expressed from the pMESy4 plasmid; source: E. coli WK6, periplasmic extraction, purified (Ni-NTA IMAC, SEC)) VHH: QVQLQESGGGLVQAGGSLRLSCAASGSIESINAMAWYRQAPGKPRELVAVIAKSDGSTTYAVPVKGRFTISRDDAKNTVYLQMNSLKPEDTAIYYCNKIPNFTYWGQGTQVTVSS", "values": [{"measurement": "Kd", "setting": "[4]", "result": 186, "unit": "nM"}, {"measurement": "SYNTH activity (turnover of ppGpp synthesis) of RelCt in the presence of Nb898, HPLC", "setting": "[5]", "result": "~11", "unit": "fold"}, {"measurement": "Kd", "setting": "[7]", "result": 190, "unit": "nM"}]}, {"molecule": "Nb898 (VHH, form not printed for this variant; NTD taken because the methods purify 'RelCtNTD and variants' (full length possible); limits from 9S6K entity) VHH: QVQLQESGGGLVQAGGSLRLSCAASGSIESINAMAWYRQAPGKPRELVAVIAKSDGSTTYAVPVKGRFTISRDDAKNTVYLQMNSLKPEDTAIYYCNKIPNFTYWGQGTQVTVSS", "values": [{"measurement": "Kd", "setting": "[8]", "result": 12000, "unit": "nM"}, {"measurement": "Kd", "setting": "[9]", "result": 2200, "unit": "nM"}, {"measurement": "Kd", "setting": "[10]", "result": 201, "unit": "nM"}, {"measurement": "Kd", "setting": "[11]", "result": 1100, "unit": "nM"}, {"measurement": "Kd", "setting": "[12]", "result": 200, "unit": "nM"}]}, {"molecule": "Nb94 (VHH, llama nanobody selected against E. coli RelA; Expressed from the pMESy4 plasmid; also called nanobody 94; source: E. coli WK6, periplasmic extraction, purified (Ni-NTA IMAC, SEC)) VHH: QVQLVESGGGMVQPGGSLRLSCAASGFTFSTYSMGWFRQAPGQEREFVAAISWSGDSAYYADSVKGRFTISRDNAKNTVYLQMNSLKFEDTAVYYCNADLDGLGYDYWGQGTQVTVS", "values": [{"measurement": "Kd", "setting": "[2]", "result": 13, "unit": "nM"}]}]}
